The values that follow come from publication PMC6953191, “OsNAC2 integrates auxin and cytokinin pathways to modulate rice root development”.

In series [1] the target is T1, OsNAC2 (Oryza sativa L. (rice), UniProt Q7XUV6 1-343).
T1 sequence: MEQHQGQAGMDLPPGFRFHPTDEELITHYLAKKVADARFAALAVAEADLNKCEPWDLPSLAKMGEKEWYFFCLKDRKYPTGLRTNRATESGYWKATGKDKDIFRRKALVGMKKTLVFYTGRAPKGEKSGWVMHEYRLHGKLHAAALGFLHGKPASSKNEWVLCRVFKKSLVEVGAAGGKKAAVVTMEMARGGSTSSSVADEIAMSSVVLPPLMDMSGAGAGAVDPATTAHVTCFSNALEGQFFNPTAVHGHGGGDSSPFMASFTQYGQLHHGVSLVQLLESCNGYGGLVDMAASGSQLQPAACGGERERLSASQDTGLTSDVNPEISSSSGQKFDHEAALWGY
The series is described as follows: competition EMSA; unlabelled probe weakened binding of FAM probe N1; 50 mM Tris-HCl pH 8.0, 100 mM KCl, 2.5 mM MgCl2, 0.2 mM DTT, 2 ug salmon sperm DNA, 10% glycerol, 20 uL, 25 C 20 min; probe printed as 200 nmol; 10% PAGE, 0.5x. The conditions noted are these: protein: recombinant; tags: pET-28a vector tag (BamHI/XhoI); chain copies: 2; blunt. Background: In EMSA bound probe runs differently from free probe, usually more slowly.

Series [2] addresses T1, OsNAC2. The series is described as follows: EMSA; increasing OsNAC2; 2.5 mM MgCl2; salmon sperm DNA; 50 mM Tris-HCl pH 8.0, 100 mM KCl, 2.5 mM MgCl2, 0.2 mM DTT, 2 ug salmon sperm DNA, 10% glycerol, 20 uL, 25 C 20 min; probe printed as 200 nmol; 10% PAGE, 0.5x. Conditions: protein: recombinant; tags: pET-28a vector tag (BamHI/XhoI); chain copies: 2; label: FAM; blunt.

B1: unlabelled 3x CGGCCACGCA competitor (dsDNA)
DNA 1: CGGCCACGCACGGCCACGCACGGCCACGCA
DNA 2: TGCGTGGCCGTGCGTGGCCGTGCGTGGCCG
Take B1: the binding result with OsNAC2 [1] is recorded as “binds”.

B2: OsCKX4 promoter-derived 3x CGGCCACGCA probe (dsDNA)
DNA 1: B1 DNA 1
DNA 2: B1 DNA 2
B2: the binding result in the series with OsNAC2 [2] was “binds”.
